Earlier results, collected in PMC3079273.
Read-outs that look alike come from different tables or passages of the source.

Assays:
[1] = biological target: nitrate reductase (Arabidopsis thaliana) (UniProt P11035)
[2] = biological target: nitrate reductase (Arabidopsis thaliana) (UniProt P11035); remark: listed apart in the source
Glu1261 = Glu1261 (UniProt position 1261, SKAVGEPPLFL); assay: kinetics; settings: free oxidized enzyme reacting with free substrate (xanthine)

Sequence of nitrate reductase (Arabidopsis thaliana) (P11035 whole entry): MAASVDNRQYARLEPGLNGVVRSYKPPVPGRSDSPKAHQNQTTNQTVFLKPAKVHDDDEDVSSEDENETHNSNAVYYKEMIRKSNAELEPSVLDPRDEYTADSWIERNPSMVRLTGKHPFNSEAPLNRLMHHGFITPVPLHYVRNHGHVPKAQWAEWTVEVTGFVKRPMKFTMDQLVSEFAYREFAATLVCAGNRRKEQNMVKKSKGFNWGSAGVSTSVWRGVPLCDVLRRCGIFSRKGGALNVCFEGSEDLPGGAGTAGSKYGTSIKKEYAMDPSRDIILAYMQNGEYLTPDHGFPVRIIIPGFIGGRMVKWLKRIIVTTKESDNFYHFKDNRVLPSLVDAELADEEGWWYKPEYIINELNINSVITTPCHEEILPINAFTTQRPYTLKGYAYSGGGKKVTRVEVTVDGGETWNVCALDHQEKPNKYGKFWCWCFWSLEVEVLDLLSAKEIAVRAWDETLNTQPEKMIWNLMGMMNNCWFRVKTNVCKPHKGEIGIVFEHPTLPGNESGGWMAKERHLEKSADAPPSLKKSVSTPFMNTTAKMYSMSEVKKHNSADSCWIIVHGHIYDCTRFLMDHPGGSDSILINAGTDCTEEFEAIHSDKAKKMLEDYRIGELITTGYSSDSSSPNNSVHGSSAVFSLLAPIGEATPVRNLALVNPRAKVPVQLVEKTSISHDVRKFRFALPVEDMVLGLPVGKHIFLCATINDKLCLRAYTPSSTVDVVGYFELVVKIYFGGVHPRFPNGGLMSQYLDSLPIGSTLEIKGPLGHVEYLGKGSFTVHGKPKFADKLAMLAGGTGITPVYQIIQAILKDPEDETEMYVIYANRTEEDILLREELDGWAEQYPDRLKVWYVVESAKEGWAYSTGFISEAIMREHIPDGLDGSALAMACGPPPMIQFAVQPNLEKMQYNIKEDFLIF
Sequence of 14-3-3 omega (Q01525 whole entry): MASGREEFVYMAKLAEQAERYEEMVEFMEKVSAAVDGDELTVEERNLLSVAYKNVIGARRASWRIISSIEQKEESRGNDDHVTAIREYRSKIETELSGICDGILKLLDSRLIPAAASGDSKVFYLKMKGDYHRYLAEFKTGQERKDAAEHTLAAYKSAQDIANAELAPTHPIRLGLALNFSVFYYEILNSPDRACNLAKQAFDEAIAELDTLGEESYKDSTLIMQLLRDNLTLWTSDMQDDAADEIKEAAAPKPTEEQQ
Sequence of 14-3-3 lambda (P48349 whole entry): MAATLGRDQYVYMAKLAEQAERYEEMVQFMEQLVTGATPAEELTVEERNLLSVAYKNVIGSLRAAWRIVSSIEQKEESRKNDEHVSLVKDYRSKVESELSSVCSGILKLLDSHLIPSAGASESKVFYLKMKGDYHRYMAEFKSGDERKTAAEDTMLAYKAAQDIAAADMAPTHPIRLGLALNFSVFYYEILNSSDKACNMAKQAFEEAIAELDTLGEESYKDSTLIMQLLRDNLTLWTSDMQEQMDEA

## 14-3-3 lambda (from UniProt P48349)
[1]
  Ki: 80 nM

## 14-3-3 omega (from UniProt Q01525)
[2]
  Ki: 60 nM

## Xanthine oxidoreductase (xanthine oxidase / xanthine dehydrogenase) (Bos taurus)
Glu1261
  pKa: 6.6
